Measured values taken from the supplement of paper PMC7125110.
± gives the standard error. For some assays here: Fewer inactive variants are shown than the library holds.

B1: glmS ribozyme (parent)
chain: AUAAAAGCGCCAGAACUACAGAAAUGUAGUUGACGAGGAGGAGGUUUAUCGAAUUUUCGGCGGAUGCCUCCAAA

Experiments:
Details in all cases: with glucosamine-6-phosphate
glucosamine-6-phosphate [1] = variants of: B1; experiment: kcat; higher = faster cleavage; RNA array
In short: (§1)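 Glucosamine-6-phosphate (40 μM to 10 mM) in HEPES/KCl/Mg(OAc)2 buffer was flowed over sequenced MiSeq chips, and tiles were imaged over ~14 h. Barcoded ribozyme variants there had been transcribed in situ by E. coli RNA polymerase and were tracked through a hybridised Cy3 probe at 37 °C. One- or two-exponential decay fits to per-tile medians, normalised to baseline and to non-cleaving reference variants, gave kobs. kcat and KM came from weighted Michaelis–Menten fits across concentrations.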

glucosamine-6-phosphate [2] = variants of: B1; experiment: KM; higher = weaker cofactor use; RNA array
In short: as §1

glucosamine-6-phosphate [3] = variants of: B1; experiment: self-cleavage kobs at 640 uM GlcN6P; higher = faster cleavage; RNA array
In short: as §1

glucosamine-6-phosphate [4] = variants of: B1; experiment: self-cleavage kobs at 2500 uM GlcN6P; higher = faster cleavage; RNA array
In short: as §1

glucosamine-6-phosphate [5] = variants of: B1; experiment: self-cleavage kobs at 10000 uM GlcN6P; higher = faster cleavage; RNA array
In short: as §1

glucosamine-6-phosphate [6] = variants of: B1; experiment: self-cleavage kobs at 160 uM GlcN6P; higher = faster cleavage; RNA array
In short: as §1

glucosamine-6-phosphate [7] = variants of: B1; experiment: self-cleavage kobs at 40 uM GlcN6P; higher = faster cleavage; RNA array
In short: as §1

Row | Variant | kcat (glucosamine-6-phosphate [1]) [s⁻¹] | KM (glucosamine-6-phosphate [2]) [mM] | self-cleavage kobs at 640 uM GlcN6P (glucosamine-6-phosphate [3]) [s⁻¹] | self-cleavage kobs at 2500 uM GlcN6P (glucosamine-6-phosphate [4]) [s⁻¹] | self-cleavage kobs at 10000 uM GlcN6P (glucosamine-6-phosphate [5]) [s⁻¹] | self-cleavage kobs at 160 uM GlcN6P (glucosamine-6-phosphate [6]) [s⁻¹] | self-cleavage kobs at 40 uM GlcN6P (glucosamine-6-phosphate [7]) [s⁻¹]
1 | AUAAAAGCGCCAGACCUACAGAAAUGUAGUUGACGAAGAGGAGGUUUAUCGAAUUUUCGGCGGAUGCCUCCAAA | 0.000686 ± 9.5e-05 | 4.65 ± 1.2 | 9.31e-05 ± 1.5e-05 | 0.000226 ± 3.7e-05 | 0.000471 ± 4.5e-05 | – | –
2 | AUAAAAGCGCCAGACCUACAGAAAUGUAGUUCACGAGGAGGAGGUUUAUCGACUUUUCGGCGGAUGCCUCCAAA | 2.15e-05 ± 1.1e-06 | – | – | – | – | – | –
3 | AUAAAAGCGCCAGACCUACAGAAAUGUAGUUGACGAGGAGGAGGUUUAUCGAAUUUUCGGCGGAUGCCUAAAAA | 3.7e-05 ± 3.6e-06 | 0.0986 ± 0.041 | – | – | – | – | –
4 | AUAAAAGCGCCAGACUUACAGAAAUGUAGUUGACGAGGAGGAGGUUUAUCGAGUAUUCGGCGGAUGCGUCCAAA | 3.32e-05 ± 6.7e-06 | – | – | 3.96e-05 ± 1.4e-05 | – | 3.89e-05 ± 1.8e-05 | –
5 | AUAAAAGCGCCAGACCUACAGAAAUGUAAUUGACGAGGAGGAGGUUUAUCGAAUUUUCGGCGGAUGCCUCCAAA | 0.0015 ± 0.00014 | 6.27 ± 0.87 | 0.000137 ± 2.3e-05 | 0.000429 ± 9.7e-05 | 0.000924 ± 0.00012 | – | –
6 | AUAAAAGCGCCAGACCUACAGAAAUGUACUUGACGAGGAGGAGGUUUAUCGAAUUUUCGGCGGAUGCCUCCAAA | 0.00165 ± 0.00021 | 2.62 ± 0.51 | 0.000333 ± 4.2e-05 | 0.000772 ± 9.9e-05 | 0.00135 ± 0.00018 | 8.7e-05 ± 1.5e-05 | 3.67e-05 ± 1e-05
7 | AUAAAAGCGCCAGACCUACAGAAAUGUAGUUAACGAGGAGGAGGUUUAUCGAAUUUUCGGCGGAUGCCUCCAAA | 0.00227 ± 0.0006 | 3.61 ± 1.4 | 0.000293 ± 6.8e-05 | 0.0012 ± 0.00025 | 0.00157 ± 0.00034 | 9.83e-05 ± 3.7e-05 | 4.19e-05 ± 1.9e-05
8 | AUAAAAGCGCCAGACAUACAGAAAUGUAGUUGACGAGGAGGAGGUUUAUCGAAUUUUCGGCUGAUGCCUCCAAA | < 1e-05 | – | – | – | – | – | < 1e-05
9 | AUAAAAGCGCCAGACCUACAGAAAUGUAGUUGACGAGGAGGAGGUUUAUCGAAUUUUGGGCGGAUGCCUCCAAA | 0.000128 ± 2.1e-05 | – | 4.09e-05 ± 1.2e-05 | 5.08e-05 ± 1.8e-05 | 0.000111 ± 1.4e-05 | – | –
10 | AUAAAAGCGCCAGACAUACAGAAAUGUAGUUGACGAGGAGGAGGUUUAUCGAAUUUUCGGCGGAUGCCUUUAAA | 2.86e-05 ± 3.8e-06 | – | – | 2.89e-05 ± 1.3e-05 | – | – | –
